Results on ten molecules are retold here after US20260097138A1, “BIOMATERIAL COATED NANOSTRUCTURES FOR PHOTOACOUSTIC IMAGING AND PHOTOTHERMAL THERAPY OF TUMOR LESIONS” (OSPEDALE SAN RAFFAELE S.R.L., priority 2022, published 2026).

Starred links: 1 amine or outer side, 2 acyl side, 3 side chain; linkers in the order of their positions; H or OH if unused. Positions of bridges follow the written chain, without caps; N, C: chain ends. Non-standard residues stand in square brackets, D forms with d. Residues, ends and D or L forms follow the SMILES beside them. βAsp = O=C(O)[C@H](CC(=O)[*:2])N[*:1]; dPhg = N[C@@H](C(=O)O)c1ccccc1; Phg = N[C@H](C(=O)O)c1ccccc1

Assay [1] concerns 5637 cells. The assay is described as follows: Cell adhesion assay on coated microtiter plates. The class given is cell-based, human. As to conditions: plates coated with 250 μg/ml GNRs. On the procedure:
(§1) The plates were washed and blocked with 2% BSA in DMEM or RPMI-1640 (200 μl/well, 1 h). MB49-Luc and 5637 cells were detached with DPBS-E, washed twice with DPBS, and suspended in DMEM or RPMI-1640 containing 0.1% BSA (binding buffer-3), and added to the coated-plates (1.5×10^5 cells/well, 100 μl). After 1-2 h of incubation at 37° C., 5% CO2, the plates were washed with binding buffer-3. Adherent cells were fixed and stained with 0.5% crystal violet in 20% methanol. After washing with water, the dye was extracted from cells using a 10% acetic acid solution (140 μl/well) and the absorbance at 570 nm was measured using a microplate reader.

Assay [2] concerns MB49-Luc derived orthotopic bladder tumor. The assay is described as follows: PAI of orthotopic MB49-Luc bladder tumor after intravesical instillation. It counts as in vivo, mice. To be noted: intravesical co-administration. The protocol:
Murine orthotopic bladder tumor model: All procedures and studies involving mice were approved by the Institutional Animal Care and Use Committee of San Raffaele Scientific Institute and performed according to the prescribed guidelines (IACUC, approval number 942). Female albino C57BL/6J mice (9 weeks old, weighing about 20 g, Charles River Laboratories, Italy) were anesthetized with ketamine (80 mg/kg) and xylazine (15 mg/kg) and kept in dorsal position. Using a 24-gauge catheter, the bladder of each mouse was emptied and instilled with or without MB49-Luc cells (10^5 cells/100 μl in DPBS). Thirty minutes later the catheter was removed, and mice were allowed to recover and returned to their cage. Tumor growth was monitored by measuring the tumor volume through US imaging (see below) and in vivo bioluminescent quantification after administration of luciferin (15 mg/kg, intra peritoneum) using the non-invasive In Vivo Imaging System (IVIS, PerkinElmer, USA).
US and PAI of GNRs@Chit and GNRs@Chit-Iso4: High-resolution US and PA imaging have been acquired using the Vevo LAZR-X platform (FUJIFILM VisualSonics, Inc., Toronto, ON, Canada). The imaging platform includes a high frequency US system (Vevo 3100) combined with an Nd:YAG nano-second pulsed laser with repetition rate of 20 Hz. The linear US transducer array Mx 550D consists of 256 elements with a nominal center frequency of 40 MHz (25-55 MHz bandwidth) and a spatial resolution of 40 μm with a maximum imaging depth of 15 mm. Light from the laser is delivered to the tissue through optical fibers mounted on either side of the transducer. During volumetric US-PA acquisitions, a stepper motor is used for the linear translation of the US transducer and optical fibers along the sample. The linear stepper motor moves in steps of a minimum of 0:1 mm while capturing 2-D parallel images, for a maximum 3D range distance of 6.4 cm.
3D B mode scan was carried out for in vitro (drop) and in vivo (mouse bladder) studies. The photoacoustic spectra between 680 nm and 970 nm were scanned with a step size of 5 nm; for the in vivo studies (murine bladder) the 3D multispectral PA scans were acquired selecting PA spectral curve of tissue components melanin, deoxy- and oxy-generated blood, and GNRs; the processed wavelengths (680; 722; 764; 810; 924; 970 nm) were automatically selected from the spectral curve used to spectrally unmix the GNRs signal from other endogenous tissue chromophore signals such as oxy, deoxy hemoglobin. The algorithm reported by Luke et al was used to select these wavelengths which is ideal for separating the signal from GNRs from other endogenous absorbers.
Data analyses were conducted using the Vevo® Lab software; volumes of interest were obtained by manually drawing Volumes of Interest (VOIs) on 3D B-mode images. GNRs, melanin, oxy- and deoxy-hemoglobin content were estimated through spectral unmixing analyses of the spectroscopic data.

Assay [3] concerns MB49-Luc cells. Nature of the assay: Cell adhesion assay on coated microtiter plates. It counts as cell-based, murine. As to conditions: MB49-Luc cells; plates coated with 250 μg/ml GNRs. On the procedure: as §1
Assay [4] deals with T1, human integrin α5β1 (Homo sapiens, UniProt P05556+P08648).
T1 construct: purchased Immunological Sciences (Rome, Italy)
Nature of the assay: α5β1 integrin binding assay with HRP conjugates. To be noted: for binding of HRP conjugate to plates coated with α5β1: no detergent in buffers, OPD substrate. The protocol: The final products were called Iso4-HRP and ARA-HRP. The conjugates were diluted (range 0-400 nM) in 25 mM Tris-HCl, pH 7.4, containing 150 mM sodium chloride, 1 mM magnesium chloride, 1 mM manganese chloride and 1% BSA (binding buffer-2) and added to 96-well plate polyvinyl chloride (PVC) microtiter plates (Carlo Erba, cod. FA5280100) coated with or without α5β1 (4 μg/ml) and left to incubate for 2 h. The plates were washed with 25 mM Tris-HCl, pH 7.4, containing 150 mM of sodium chloride, 1 mM of magnesium chloride, 1 mM of manganese chloride, and bound peroxidase was detected by adding a chromogenic solution (o-phenylenediamine dihydrochloride, OPD). The chromogenic reaction was stopped by adding 1 N sulfuric acid. The absorbance at 490 nm was then measured using a microtiter plate reader. The effect of human urine (from a healthy donor) on the binding of Iso4-HRP was studied as described above by mixing Iso4-HRP (300 nM final concentration) and various amounts of urine diluted in binding buffer-2.

In assay [5] the test system is 5637 cells. The assay is described as follows: Binding of Iso4-Qdot / ARA-Qdot to cells (FACS, fluorescence microscopy). The class given is cell-based, human. To be noted: flow cytometry and fluorescence microscopy, 2 h at 37° C. On the procedure:
(§2) The binding of Iso4-Qdot and ARA-Qdot to MB49-Luc and 5637 cells was assessed through FACS and fluorescence microscopy experiments. FACS analysis was carried out as follows: the cells were detached with DPBS containing 5 mM EDTA pH 8.0 (DPBS-E), washed with DPBS, and suspended in 25 mM Hepes buffer, pH 7.4, containing 150 mM sodium chloride, 1 mM magnesium chloride, 1 mM manganese chloride, 1% BSA (binding buffer-1) and Iso4- or ARA-Qdot (range 30-0 nM, 5×10^5 cells/100 μl tube). After 2 h of incubation at 37° C., the cells were washed with binding buffer-1 without BSA and fixed with 4% formaldehyde. Bound fluorescence was detected using a CytoFLEX S cytofluorimeter (Beckman Coulter). The binding of Iso4-Qdot and ARA-Qdot to living 5637 cells was analyzed as follows: 5637 cells were cultured in a 96-well clear bottom black plate (5×10^4 cells/well) for 48 h, 5% CO2, 37° C. The plates were washed with binding buffer-1 and incubated with Iso4-Qdot or ARA-Qdot solution (30 nM in binding buffer-1) for 2 h at 37° C., 5% CO2. The cells were then washed with binding buffer-1, and fixed with 3% paraformaldehyde and 2% sucrose for 20 min. Bound fluorescence was acquired using the Cellomics ArrayScan XTI Studio Scan (Thermo Fischer Scientific) system.
For orientation: In flow cytometry, cells or beads pass a laser one at a time.

Assay [6] has as its system MB49-Luc cells. The assay is described as follows: Binding of Iso4-Qdot / ARA-Qdot to cells (FACS). It counts as cell-based, murine. To be noted: flow cytometry, 2 h at 37° C. The protocol: as §2
Assay [7] deals with mouse integrin α5 subunit on the surface of MB49-Luc cells (mouse) (UniProt P11688). The assay is described as follows: flow cytometry on MB49-Luc cells, 5 µg/ml antibody.
Assay [8] addresses human integrin α5 subunit on the surface of human urothelial and bladder carcinoma cells (human) (UniProt P08648). Nature of the assay: flow cytometry on HT1376 bladder carcinoma cells, 5 µg/ml antibody.
The target is the same in assay [9]. The assay is described as follows: flow cytometry on RT112 bladder carcinoma cells, 5 µg/ml antibody.
For assay [10] the target is unchanged. Nature of the assay: flow cytometry on HBLAK primary urothelial cells, 5 µg/ml antibody.
Assay [11] has the same target. Nature of the assay: flow cytometry on PCS-420-010 primary urothelial cells, 5 µg/ml antibody.
Assay [12] shares this target. The assay is described as follows: flow cytometry on RT4 bladder carcinoma cells, 5 µg/ml antibody.
For assay [13] the target is unchanged. The assay is described as follows: flow cytometry on 5637 bladder carcinoma cells, 5 µg/ml antibody.
Assay [14] has as its target mouse integrin β1 subunit on the surface of MB49-Luc cells (mouse) (UniProt P09055). Nature of the assay: flow cytometry on MB49-Luc cells, 5 µg/ml antibody.
Assay [15] concerns the target human integrin β1 subunit on the surface of human urothelial and bladder carcinoma cells (human) (UniProt P05556). Nature of the assay: flow cytometry on HT1376 bladder carcinoma cells, 5 µg/ml antibody.
For assay [16] the target is unchanged. Nature of the assay: flow cytometry on RT112 bladder carcinoma cells, 5 µg/ml antibody.
Assay [17] has the same target. Nature of the assay: flow cytometry on HBLAK primary urothelial cells, 5 µg/ml antibody.
For assay [18] the target is unchanged. Nature of the assay: flow cytometry on PCS-420-010 primary urothelial cells, 5 µg/ml antibody.
Assay [19] shares this target. Nature of the assay: flow cytometry on RT4 bladder carcinoma cells, 5 µg/ml antibody.
Assay [20] shares this target. The assay is described as follows: flow cytometry on 5637 bladder carcinoma cells, 5 µg/ml antibody.
The target of assay [21] is α5β1 integrin on murine MB49-Luc bladder cancer cells (mouse, UniProt P11688 45-1053; P09055 21-798). Nature of the assay: cell-based or functional assay.
The target of assay [22] is α5β1 integrin on human 5637 bladder cancer cells (human, UniProt P08648 42-1049; P05556 21-798). Nature of the assay: cell-based or functional assay.
Sequence of α5β1 integrin on human 5637 bladder cancer cells (P08648 42-1049, chain 1 of 2): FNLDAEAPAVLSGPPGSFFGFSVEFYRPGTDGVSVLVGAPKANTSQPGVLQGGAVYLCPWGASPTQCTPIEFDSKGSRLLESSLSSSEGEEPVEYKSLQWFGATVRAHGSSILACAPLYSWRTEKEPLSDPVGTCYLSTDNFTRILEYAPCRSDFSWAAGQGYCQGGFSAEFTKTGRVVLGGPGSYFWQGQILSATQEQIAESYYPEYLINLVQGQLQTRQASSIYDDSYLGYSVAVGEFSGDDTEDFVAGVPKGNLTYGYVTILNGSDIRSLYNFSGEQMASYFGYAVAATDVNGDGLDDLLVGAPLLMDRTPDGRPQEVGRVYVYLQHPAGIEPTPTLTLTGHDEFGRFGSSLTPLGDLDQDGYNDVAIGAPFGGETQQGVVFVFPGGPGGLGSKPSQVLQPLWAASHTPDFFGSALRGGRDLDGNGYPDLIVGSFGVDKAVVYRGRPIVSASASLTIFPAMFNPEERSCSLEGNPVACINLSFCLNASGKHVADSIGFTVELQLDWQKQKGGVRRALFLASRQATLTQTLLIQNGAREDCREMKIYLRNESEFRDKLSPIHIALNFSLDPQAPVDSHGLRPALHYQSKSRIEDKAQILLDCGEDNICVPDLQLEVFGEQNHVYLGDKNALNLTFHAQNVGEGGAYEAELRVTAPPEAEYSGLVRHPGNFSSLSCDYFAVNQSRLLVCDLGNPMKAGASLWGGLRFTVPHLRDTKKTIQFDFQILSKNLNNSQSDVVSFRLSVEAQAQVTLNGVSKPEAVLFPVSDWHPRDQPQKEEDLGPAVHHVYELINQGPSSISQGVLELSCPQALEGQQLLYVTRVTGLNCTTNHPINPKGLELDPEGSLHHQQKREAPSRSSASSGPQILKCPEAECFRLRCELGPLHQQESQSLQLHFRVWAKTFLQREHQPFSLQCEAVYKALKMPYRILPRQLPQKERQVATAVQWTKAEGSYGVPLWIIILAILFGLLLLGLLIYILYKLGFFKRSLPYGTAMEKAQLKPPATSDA
Sequence of α5β1 integrin on human 5637 bladder cancer cells (P05556 21-798, chain 2 of 2): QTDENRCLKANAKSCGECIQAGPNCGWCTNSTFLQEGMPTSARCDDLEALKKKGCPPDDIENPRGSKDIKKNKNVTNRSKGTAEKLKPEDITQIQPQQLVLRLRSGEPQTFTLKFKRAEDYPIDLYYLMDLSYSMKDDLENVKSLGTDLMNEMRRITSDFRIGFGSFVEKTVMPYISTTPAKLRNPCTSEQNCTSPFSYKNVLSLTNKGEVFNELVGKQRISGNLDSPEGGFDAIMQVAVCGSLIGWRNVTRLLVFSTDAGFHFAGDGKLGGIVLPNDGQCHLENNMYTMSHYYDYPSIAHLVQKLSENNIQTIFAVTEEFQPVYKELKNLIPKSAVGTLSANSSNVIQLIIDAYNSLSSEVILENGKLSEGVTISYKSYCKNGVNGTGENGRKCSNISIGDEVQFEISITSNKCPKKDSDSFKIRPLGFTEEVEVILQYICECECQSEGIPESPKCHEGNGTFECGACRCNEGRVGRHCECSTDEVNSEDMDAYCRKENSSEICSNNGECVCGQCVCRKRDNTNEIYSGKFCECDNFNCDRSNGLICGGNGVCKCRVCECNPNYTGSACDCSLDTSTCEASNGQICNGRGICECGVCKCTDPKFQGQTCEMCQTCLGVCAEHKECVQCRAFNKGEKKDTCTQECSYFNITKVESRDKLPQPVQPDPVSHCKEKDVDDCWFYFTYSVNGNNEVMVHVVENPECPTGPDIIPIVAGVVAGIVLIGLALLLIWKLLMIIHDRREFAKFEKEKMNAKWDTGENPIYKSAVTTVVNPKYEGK

Sequence of human integrin β1 subunit on the surface of human urothelial and bladder carcinoma cells (human) (P05556 21-798): as the sequence (P05556 21-798, chain 2 of 2) above
Sequence of human integrin α5 subunit on the surface of human urothelial and bladder carcinoma cells (human) (P08648 42-1049): as the sequence (P08648 42-1049, chain 1 of 2) above
T1 sequence (P08648 42-894 limits assumed): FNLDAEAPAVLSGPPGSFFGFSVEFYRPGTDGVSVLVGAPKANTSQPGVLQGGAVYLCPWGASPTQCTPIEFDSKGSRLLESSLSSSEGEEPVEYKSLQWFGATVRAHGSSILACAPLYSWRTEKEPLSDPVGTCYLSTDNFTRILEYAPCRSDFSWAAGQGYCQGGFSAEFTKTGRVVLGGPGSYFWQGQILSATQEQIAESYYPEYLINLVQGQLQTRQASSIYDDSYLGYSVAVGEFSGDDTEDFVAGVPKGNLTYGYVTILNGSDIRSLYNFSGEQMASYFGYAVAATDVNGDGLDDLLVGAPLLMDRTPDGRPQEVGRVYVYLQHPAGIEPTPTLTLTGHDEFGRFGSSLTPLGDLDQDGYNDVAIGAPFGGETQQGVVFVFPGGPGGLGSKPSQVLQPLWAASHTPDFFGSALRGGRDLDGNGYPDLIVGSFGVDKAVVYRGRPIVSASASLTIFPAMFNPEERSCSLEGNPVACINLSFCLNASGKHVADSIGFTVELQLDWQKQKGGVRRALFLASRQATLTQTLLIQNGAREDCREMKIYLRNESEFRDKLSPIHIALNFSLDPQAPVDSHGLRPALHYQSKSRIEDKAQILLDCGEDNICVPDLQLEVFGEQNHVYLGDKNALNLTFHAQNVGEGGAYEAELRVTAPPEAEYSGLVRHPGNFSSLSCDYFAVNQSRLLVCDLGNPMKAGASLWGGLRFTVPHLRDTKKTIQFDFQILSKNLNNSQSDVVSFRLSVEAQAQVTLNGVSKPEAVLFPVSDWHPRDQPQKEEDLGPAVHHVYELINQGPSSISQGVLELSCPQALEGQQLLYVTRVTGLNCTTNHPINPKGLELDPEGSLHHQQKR
T1 sequence (P08648 895-1049 partner limits assumed): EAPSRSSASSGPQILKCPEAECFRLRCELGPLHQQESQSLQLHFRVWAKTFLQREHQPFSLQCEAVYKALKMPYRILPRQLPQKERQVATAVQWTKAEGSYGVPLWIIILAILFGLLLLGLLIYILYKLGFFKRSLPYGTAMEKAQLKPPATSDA
T1 sequence (P05556 21-798): as the sequence (P05556 21-798, chain 2 of 2) above
Sequence of α5β1 integrin on murine MB49-Luc bladder cancer cells (P11688 45-1053, chain 1 of 2): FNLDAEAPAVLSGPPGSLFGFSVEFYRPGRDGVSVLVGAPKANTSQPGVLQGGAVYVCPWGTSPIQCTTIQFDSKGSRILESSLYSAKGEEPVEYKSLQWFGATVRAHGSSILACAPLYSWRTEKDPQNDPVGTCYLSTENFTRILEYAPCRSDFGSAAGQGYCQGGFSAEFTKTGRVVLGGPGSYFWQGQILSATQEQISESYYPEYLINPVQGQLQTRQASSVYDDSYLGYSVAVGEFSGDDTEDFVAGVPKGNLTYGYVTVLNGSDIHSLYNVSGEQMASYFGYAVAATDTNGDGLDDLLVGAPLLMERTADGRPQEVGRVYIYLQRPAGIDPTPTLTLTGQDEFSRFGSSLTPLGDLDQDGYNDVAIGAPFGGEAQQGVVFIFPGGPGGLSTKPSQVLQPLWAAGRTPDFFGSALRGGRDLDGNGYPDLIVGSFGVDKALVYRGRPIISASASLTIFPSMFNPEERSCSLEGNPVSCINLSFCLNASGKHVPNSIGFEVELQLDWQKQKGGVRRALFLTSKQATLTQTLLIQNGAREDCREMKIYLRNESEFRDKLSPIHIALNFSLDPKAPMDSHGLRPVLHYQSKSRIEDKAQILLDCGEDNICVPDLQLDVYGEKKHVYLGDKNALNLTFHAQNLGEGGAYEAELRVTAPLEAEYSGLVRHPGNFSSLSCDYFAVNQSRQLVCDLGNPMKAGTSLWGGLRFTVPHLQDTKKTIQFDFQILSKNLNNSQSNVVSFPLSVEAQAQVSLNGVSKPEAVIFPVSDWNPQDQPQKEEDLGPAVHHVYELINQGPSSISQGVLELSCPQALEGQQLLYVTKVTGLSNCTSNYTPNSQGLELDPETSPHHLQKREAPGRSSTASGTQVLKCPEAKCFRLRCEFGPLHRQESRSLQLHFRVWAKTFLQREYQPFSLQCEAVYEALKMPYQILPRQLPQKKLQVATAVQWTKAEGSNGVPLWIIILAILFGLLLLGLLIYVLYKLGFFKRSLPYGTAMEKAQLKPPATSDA
Sequence of α5β1 integrin on murine MB49-Luc bladder cancer cells (P09055 21-798, chain 2 of 2): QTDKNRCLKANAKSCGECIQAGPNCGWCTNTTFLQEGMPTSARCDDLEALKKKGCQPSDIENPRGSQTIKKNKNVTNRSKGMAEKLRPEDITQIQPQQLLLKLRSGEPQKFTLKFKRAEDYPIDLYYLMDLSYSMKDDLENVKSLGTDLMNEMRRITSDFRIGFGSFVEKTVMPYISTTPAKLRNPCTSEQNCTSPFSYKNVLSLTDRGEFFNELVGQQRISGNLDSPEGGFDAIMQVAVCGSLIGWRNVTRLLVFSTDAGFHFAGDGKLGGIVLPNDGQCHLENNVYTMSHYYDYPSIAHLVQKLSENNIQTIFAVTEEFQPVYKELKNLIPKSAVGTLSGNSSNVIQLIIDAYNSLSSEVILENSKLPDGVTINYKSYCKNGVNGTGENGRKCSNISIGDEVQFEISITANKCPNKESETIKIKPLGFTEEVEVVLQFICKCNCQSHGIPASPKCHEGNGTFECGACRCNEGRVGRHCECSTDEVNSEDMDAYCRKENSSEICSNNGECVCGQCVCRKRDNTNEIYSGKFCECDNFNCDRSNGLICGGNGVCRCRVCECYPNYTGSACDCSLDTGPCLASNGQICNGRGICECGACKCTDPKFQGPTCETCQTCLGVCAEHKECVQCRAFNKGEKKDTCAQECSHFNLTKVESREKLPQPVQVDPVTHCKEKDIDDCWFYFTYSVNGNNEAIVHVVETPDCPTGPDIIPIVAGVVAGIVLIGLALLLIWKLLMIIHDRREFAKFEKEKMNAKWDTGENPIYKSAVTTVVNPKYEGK
Sequence of mouse integrin α5 subunit on the surface of MB49-Luc cells (mouse) (P11688 45-1053): as the sequence (P11688 45-1053, chain 1 of 2) above
Sequence of mouse integrin β1 subunit on the surface of MB49-Luc cells (mouse) (P09055 21-798): as the sequence (P09055 21-798, chain 2 of 2) above

Regarding `N=C(N)NCCC[C@@H]1NC(=O)CNC(=O)C[C@@H](C(=O)O)NC(=O)[C@H](c2ccccc2)NC(=O)[C@H](CS)NC(=O)CNC1=O` [Iso4, c(CphgisoDGRG), reference compound] (GRGC[Phg]D-OH; lactam N-6), the “effect of excess free peptide on cell adhesion to GNRs@Chit-Iso4-coated plates” value in assay [1] and in assay [3] was “completely inhibited cell adhesion” throughout. Moreover, the “effect of co-administered excess free peptide on binding of GNR@Chit-Iso4 to MB49-Luc tumors” value in [2] was “reduced”.
Take “ARA-HRP: HRP control conjugate using the ARA peptide instead of Iso4”: the “binding of HRP conjugate to plates coated with α5β1” value in assay [4] was “but not ARA-HRP, could bind α5β1 in a dose dependent manner”.
Take “ARA-Qdot: c(CGARAG) peptide coupled to Qdot, negative control (cyclo(CGARAG); not fully specified (residue 1); also: coupled to Qdot605 quantum dot via Cys thiol)”: the “binding of Qdot conjugate to cells” value in assay [5] is given as “but not the ARA-Qdot, bound these cells”; in [6], “but not the ARA-Qdot, bound these cells”.
In the case of “Iso4-HRP: Iso4 conjugated to maleimide-activated horseradish peroxidase via thiol group”, in [4] (in 90% of urine, Iso4-HRP 300 nM), the “recovery of binding to α5β1 in human urine” value was “about 55%”. Also, in assay [4], the “binding of HRP conjugate to plates coated with α5β1” value is listed as “could bind α5β1 in a dose dependent manner”.
Take “Iso4-Qdot: Iso4 coupled to fluorescent nanoparticles (Quantum Dots, Qdot) via the sulfhydryl group of the cysteine”: the “binding of Qdot conjugate to cells” value in assay [5] and in assay [6] was “bound these cells” each time.
With “anti-α5 integrin hamster monoclonal antibody, clone HMα5-1”, the Fold (mean fluorescence intensity over isotype control) in assay [7] was 3.79 fold.
As to “anti-α5 integrin mouse monoclonal antibody, clone P1D6”, the Fold (median fluorescence intensity over isotype control) in assay [8] came to 4.1 fold; in assay [9], 5.8 fold; in assay [10], 2.1 fold; in [11], 1.5 fold; in [12], 6 fold; in assay [13] it was 1.9 fold.
In assay [14], “anti-β1 integrin hamster monoclonal antibody, clone HMβ1-1” came in with a Fold (mean fluorescence intensity over isotype control) of 8.02 fold.
In the case of “anti-β1 integrin mouse monoclonal antibody, clone P5D2”, the Fold (median fluorescence intensity over isotype control) was 11.9 fold in [15]; 38.7 fold in assay [16]; 0.8 fold in assay [17]; 1.2 fold in assay [18]; 18.6 fold in [19]; 40.5 fold in [20].

B1: GNRs@Chit-Iso4 (gold nanorods coated with thiolated chitosan, carrying Iso4 via maleimide-PEG12-NHS) (other)
peptide: cyclo(C[dPhg][βAsp]GRG)
modifications: not fully specified (residue 1); also: Cys thiol coupled via maleimide-PEG12-NHS linker to thiolated-chitosan-coated gold nanorods
On to B1, for which the “effective concentration 50 (EC50) of cell adhesion to plates coated with GNRs@Chit-Iso4” value came out at 0.73 µg/mL in assay [21] and 1.3 µg/mL in [22].
